Source: publication PMC4919205

Molecular target: TRPV6_(CysKO) D34C-R631C double mutant (rat) (UniProt Q9R186)
Experiment: cross-linking

Substance: TRPV6_(CysKO) D34C-R631C double mutant (from UniProt Q9R186 1-668) (natural protein)
- stoichiometry N: 4
